The target in experiment [1] is T1, CLR-Nluc in complex with FLAG-RAMP1 (CGRP receptor) (UniProt Q16602 23-461; O60894 27-148).
T1 construct: calcitonin-like receptor (CLR), direct C-terminal in-frame fusion to NanoLuc, in pcDNA3.1(-); receptor activity modifying protein 1 (RAMP1), pcDNA3.1(+)FLAG-RAMP, described in Weston et al., 2016 and Harris et al., 2021; Harris et al., 2021; also called CLR-RAMP1; calcitonin-like receptor with receptor activity modifying protein 1; source: HEK293T, transfected, in living cells; not shown: …

The target of experiment [2] is T2, CLR-Nluc in complex with FLAG-RAMP2 (adrenomedullin 1 receptor) (UniProt Q16602 23-461; O60895 43-175).
T2 construct: calcitonin-like receptor (CLR), direct C-terminal in-frame fusion to NanoLuc, in pcDNA3.1(-); receptor activity modifying protein 2 (RAMP2), pcDNA3.1(+)FLAG-RAMP, described in Weston et al., 2016 and Harris et al., 2021; Harris et al., 2021; also called CLR-RAMP2; AM1R; source: HEK293T, transfected, in living cells; not shown: NanoLuc, C-terminal, kept; FLAG, N-terminal, kept
Description: FRET or BRET; living HEK293T cells transfected with CLR-Nluc (donor), FLAG-RAMP1/2/3 and β-arrestin1/2-YFP (acceptor); 5 μM coelenterazine-h; stimulated with AM, 1 μM to 10 pM; BRET ratio 460/530 nm read for at least 20 min. Conditions: partners not purified.

T1 sequence (Q16602 23-461, chain 1 of 2): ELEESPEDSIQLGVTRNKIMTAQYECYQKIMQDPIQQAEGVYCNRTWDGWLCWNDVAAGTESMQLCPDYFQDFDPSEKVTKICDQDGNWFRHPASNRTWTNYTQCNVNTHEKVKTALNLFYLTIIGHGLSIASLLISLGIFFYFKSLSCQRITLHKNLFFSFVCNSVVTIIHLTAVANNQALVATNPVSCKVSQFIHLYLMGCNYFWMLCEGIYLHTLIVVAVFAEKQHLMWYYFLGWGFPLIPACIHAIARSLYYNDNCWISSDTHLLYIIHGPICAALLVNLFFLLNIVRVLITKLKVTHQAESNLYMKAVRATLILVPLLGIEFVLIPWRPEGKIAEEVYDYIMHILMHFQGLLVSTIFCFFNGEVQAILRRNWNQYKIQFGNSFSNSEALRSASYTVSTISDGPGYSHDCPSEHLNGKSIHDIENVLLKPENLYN
T1 sequence (O60894 27-148, chain 2 of 2): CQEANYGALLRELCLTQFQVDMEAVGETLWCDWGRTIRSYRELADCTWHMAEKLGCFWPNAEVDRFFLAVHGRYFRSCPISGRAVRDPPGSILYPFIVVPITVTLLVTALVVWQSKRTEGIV
T2 sequence (Q16602 23-461, chain 1 of 2): as the sequence (Q16602 23-461, chain 1 of 2) above
T2 sequence (O60895 43-175, chain 2 of 2): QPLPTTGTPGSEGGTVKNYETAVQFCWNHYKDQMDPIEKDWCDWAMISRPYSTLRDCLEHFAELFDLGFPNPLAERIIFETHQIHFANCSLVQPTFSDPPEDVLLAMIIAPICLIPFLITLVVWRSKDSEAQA

With “adrenomedullin 2 (from UniProt Q7Z4H4 101-148) (peptide)”, in experiment [1], the cAMP accumulation, Emax, cells pretreated with DMSO (vehicle) (% of the response to 100 μM forskolin) was 79.8; the cAMP accumulation, Emax, cells pretreated with barbadin (% of the response to 100 μM forskolin) is 47.2; the cAMP accumulation, pEC50, cells pretreated with DMSO (vehicle) is 6.34; the cAMP accumulation, pEC50, cells pretreated with barbadin came to 4.93.

B1: β-arrestin1-YFP (natural protein, UniProt P49407 1-418, looked up)
chain: MGDKGTRVFKKASPNGKLTVYLGKRDFVDHIDLVDPVDGVVLVDPEYLKERRVYVTLTCAFRYGREDLDVLGLTFRKDLFVANVQSFPPAPEDKKPLTRLQERLIKKLGEHAYPFTFEIPPNLPCSVTLQPGPEDTGKACGVDYEVKAFCAENLEEKIHKRNSVRLVIRKVQYAPERPGPQPTAETTRQFLMSDKPLHLEASLDKEIYYHGEPISVNVHVTNNTNKTVKKIKISVRQYADICLFNTAQYKCPVAMEEADDTVAPSSTFCKVYTLTPFLANNREKRGLALDGKLKHEDTNLASSTLLREGANREILGIIVSYKVKVKLVVSRGGLLGDLASSDVAVELPFTLMHPKPKEEPPHREVPENETPVDTNLIELDTNDDDIVFEDFARQRLKGMKDDKEEEEDGTGSPQLNNR
notes: β-arrestin1 with an in-frame C-terminal YFP (Mackie et al., 2019); source: HEK293T, transfected, in living cells; not shown: YFP, C-terminal, kept
As for B1, the “pEC50 of AM for recruitment (BRET)” value in experiment [2] is 7.57 ± 0.17.

These data come from publication PMC9001978, “Determining the Effects of Differential Expression of GRKs and β-arrestins on CLR-RAMP Agonist Bias” (Frontiers in Physiology, 2022).
